Results: paper PMC3195437 (Biochemical Journal, 2011)

B1: rHtrASA (recombinant, N-terminally truncated, proteolytically inactive HtrA of Synechocystis sp. PCC 6803, Ser296 replaced by alanine) (enzyme, UniProt P73354 94-452, looked up)
chain: SIAPANESLATNLQSRLSPREPSNFVVDVVESTGPAVVRINAQKTVKSQVPQAFNDPFLQRFFGSQMPPMPNERVQRGTGSGFIVSNDGKIFTNAHVVDGADEVTVTLKDGRSFPGRVMGSDPSTDVAVVKIEAGDLPTVALGDSDHLQVGEWAIAIGNPLGLDNTVTTGILSATGRRSADIGVPDKRVEFIQTDAAINPGNAGGPLLNADGQVIGMNTAIIQNAQGIGFAIPINKAQEIAQQLIATGKVEHAYLGIQMVTMTPELQSQIRQETGMNIPVDKGVVIMQVMPNSPAAIAKLEQGDVLQSLQGQPVENAEQVQSLVGKLAVGDEVELGILRNGQQQNLTVTIGALPSAPPQ
B2: rHhoBSA (recombinant, N-terminally truncated, proteolytically inactive HhoB of Synechocystis sp. PCC 6803, Ser258 replaced by alanine) (enzyme, UniProt P73940 51-416, looked up)
chain: SLTPAPVESNYRSALPLTLPRSAQDDQELNFIARAVQKIGPAVVRIDSERTAVSQGGPMGDQPFFRRFFGEEMPPNPDPREQGTGSGFILSSDGEVLTNAHVVEGASTVKVTLKDGSVLEGKVMGIDTMTDVAVVKVEAENLPVVEIGQSDRLQPGEWAIAIGNPLGLDNTVTVGIISALGRSSSEVGVPDKRVRFIQTDAAINPGNAGGPLLNAKGEVIGVNTAIRADAQGLGFAIPIQTAQNVAENLFTKGKMEHPYLGIHMVTLTPEMTKQLRTSGELPAGVTADTGVLIIQVSPGSPAAQAGLAPGDIILEVGGMGVKTATDVQERVEVSQIGEPLAIAVKRGQKPQMMAVRPGPFPEDLGQ

Target: the molecule itself
Experiment: SEC

| Protein | stoichiometry N |
| --- | --- |
| B1 | 3 |
| B2 | 3 |
